What was measured:
HeLa Kyoto [1] = assay: solubility in G1/S (NP-40 vs SDS abundance) (log2 ratio); higher = more soluble; conditions: cell cycle stage: G1/S
HeLa Kyoto [2] = assay: solubility change mitosis vs G1/S (difference of NP-40 vs SDS log2 ratios) (log2 ratio difference); higher = more soluble in mitosis
HeLa Kyoto [3] = assay: melting temperature (median over replicates), in situ; higher = more thermally stable
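For melting temperature (median over replicates), in situ in this document: HeLa Kyoto cells synchronized by double thymidine or nocodazole block, proteins quantified by TMT10plex mass spectrometry, three independent biological replicates.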
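For solubility change mitosis vs G1/S (difference of NP-40 vs SDS log2 ratios) in this document: synchronized HeLa Kyoto cells (double thymidine block for G1/S, nocodazole release for mitosis), protein amounts in NP-40 versus SDS lysates quantified by mass spectrometry, three biological replicates.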
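For solubility in G1/S (NP-40 vs SDS abundance) in this document: HeLa Kyoto cells arrested at G1/S by double thymidine block, proteins quantified by TMT10plex mass spectrometry in mild NP-40 versus SDS extracts, three biological replicates.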

Sequence of TAF6 (chain, as listed by the source): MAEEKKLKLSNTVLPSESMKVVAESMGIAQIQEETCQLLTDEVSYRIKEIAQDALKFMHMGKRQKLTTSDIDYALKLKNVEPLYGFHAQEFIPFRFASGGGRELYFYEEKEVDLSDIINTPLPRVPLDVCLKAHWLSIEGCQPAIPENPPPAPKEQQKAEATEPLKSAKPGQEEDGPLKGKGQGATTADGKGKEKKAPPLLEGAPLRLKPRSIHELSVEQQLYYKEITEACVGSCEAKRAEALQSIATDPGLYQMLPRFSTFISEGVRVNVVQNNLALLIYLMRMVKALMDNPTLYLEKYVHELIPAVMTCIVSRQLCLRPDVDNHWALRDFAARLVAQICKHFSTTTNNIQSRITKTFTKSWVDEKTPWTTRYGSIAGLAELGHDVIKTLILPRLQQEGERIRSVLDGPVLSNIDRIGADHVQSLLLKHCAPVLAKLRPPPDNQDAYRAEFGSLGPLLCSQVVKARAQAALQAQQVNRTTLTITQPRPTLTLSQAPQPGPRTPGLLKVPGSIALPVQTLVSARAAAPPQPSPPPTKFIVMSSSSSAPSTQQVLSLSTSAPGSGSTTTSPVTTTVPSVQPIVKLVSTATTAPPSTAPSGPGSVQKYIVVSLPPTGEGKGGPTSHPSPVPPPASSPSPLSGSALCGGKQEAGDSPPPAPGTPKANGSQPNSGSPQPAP
Sequence of STAT2 (chain, as listed by the source): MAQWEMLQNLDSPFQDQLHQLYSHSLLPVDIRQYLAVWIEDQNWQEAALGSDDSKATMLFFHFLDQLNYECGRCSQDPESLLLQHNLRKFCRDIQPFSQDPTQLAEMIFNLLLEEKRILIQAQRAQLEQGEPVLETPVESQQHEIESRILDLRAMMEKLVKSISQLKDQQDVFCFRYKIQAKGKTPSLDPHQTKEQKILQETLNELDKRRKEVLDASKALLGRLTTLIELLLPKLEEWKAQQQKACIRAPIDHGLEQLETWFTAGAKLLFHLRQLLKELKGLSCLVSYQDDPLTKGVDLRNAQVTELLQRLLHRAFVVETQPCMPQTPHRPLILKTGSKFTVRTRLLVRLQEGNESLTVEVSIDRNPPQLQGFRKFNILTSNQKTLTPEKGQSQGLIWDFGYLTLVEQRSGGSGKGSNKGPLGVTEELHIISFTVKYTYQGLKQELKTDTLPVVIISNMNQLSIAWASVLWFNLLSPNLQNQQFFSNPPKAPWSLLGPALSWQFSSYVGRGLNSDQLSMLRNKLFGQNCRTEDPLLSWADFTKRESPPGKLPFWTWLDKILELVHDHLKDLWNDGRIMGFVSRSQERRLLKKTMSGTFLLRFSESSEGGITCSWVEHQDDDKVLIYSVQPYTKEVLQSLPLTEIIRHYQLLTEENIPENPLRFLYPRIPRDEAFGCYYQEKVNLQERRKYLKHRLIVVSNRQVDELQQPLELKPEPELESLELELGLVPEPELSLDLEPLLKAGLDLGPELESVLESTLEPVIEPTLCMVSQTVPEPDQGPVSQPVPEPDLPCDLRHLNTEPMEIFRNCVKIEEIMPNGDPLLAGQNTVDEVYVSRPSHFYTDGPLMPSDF

| Substance | solubility in G1/S (log2) (HeLa Kyoto [1]) | solubility change mitosis (log2) (HeLa Kyoto [2]) | melting temperature (HeLa Kyoto [3]; cell cycle stage: G1/S) [°C] | melting temperature (HeLa Kyoto [3]; cell cycle stage: mitosis) [°C] |
| --- | --- | --- | --- | --- |
| MAQQANVGELLAMLDSPMLGVRDDVTAVFKENLNSDRGPMLVNTLVDYYLETSSQPALHILTTLQEPHDKHLLDRINEYVGKAATRLSILSLLGHVIRLQPSWKHKLSQAPLLPSLLKCLKMDTDVVVLTTGVLVLITMLPMIPQSGKQHLLDFFDIFGRLSSWCLKKPGHVAEVYLVHLHASVYALFHRLYGMYPCNFVSFLRSHYSMKENLETFEEVVKPMMEHVRIHPELVTGSKDHELDPRRWKRLETHDVVIECAKISLDPTEASYEDGYSVSHQISARFPHRSADVTTSPYADTQNSYGCATSTPYSTSRLMLLNMPGQLPQTLSSPSTRLITEPPQATLWSPSMVCGMTTPPTSPGNVPPDLSHPYSKVFGTTAGGKGTPLGTPATSPPPAPLCHSDDYVHISLPQATVTPPRKEERMDSARPCLHRQHHLLNDRGSEEPPGSKGSVTLSDLPGFLGDLASEEDSIEKDKEEAAISRELSEITTAEAEPVVPRGGFDSPFYRDSLPGSQRKTHSAASSSQGASVNPEPLHSSLDKLGPDTPKQAFTPIDLPCGSADESPAGDRECQTSLETSIFTPSPCKIPPPTRVGFGSGQPPPYDHLFEVALPKTAHHFVIRKTEELLKKAKGNTEEDGVPSTSPMEVLDRLIQQGADAHSKELNKLPLPSKSVDWTHFGGSPPSDEIRTLRDQLLLLHNQLLYERFKRQQHALRNRRLLRKVIKAAALEEHNAAMKDQLKLQEKDIQMWKVSLQKEQARYNQLQEQRDTMVTKLHSQIRQLQHDREEFYNQSQELQTKLEDCRNMIAELRIELKKANNKVCHTELLLSQVSQKLSNSESVQQQMEFLNRQLLVLGEVNELYLEQLQNKHSDTTKEVEMMKAAYRKELEKNRSHVLQQTQRLDTSQKRILELESHLAKKDHLLLEQKKYLEDVKLQARGQLQAAESRYEAQKRITQVFELEILDLYGRLEKDGLLKKLEEEKAEAAEAAEERLDCCNDGCSDSMVGHNEEASGHNGETKTPRPSSARGSSGSRGGGGSSSSSSELSTPEKPPHQRAGPFSSRWETTMGEASASIPTTVGSLPSSKSFLGMKARELFRNKSESQCDEDGMTSSLSESLKTELGKDLGVEAKIPLNLDGPHPSPPTPDSVGQLHIMDYNETHHEHS [TSC1] | 0.0426 | -0.187 | 50.2 | 50.7 |
| MFVSDFRKEFYEVVQSQRVLLFVASDVDALCACKILQALFQCDHVQYTLVPVSGWQELETAFLEHKEQFHYFILINCGANVDLLDILQPDEDTIFFVCDTHRPVNVVNVYNDTQIKLLIKQDDDLEVPAYEDIFRDEEEDEEHSGNDSDGSEPSEKRTRLEEEIVEQTMRRRQRREWEARRRDILFDYEQYEYHGTSSAMVMFELAWMLSKDLNDMLWWAIVGLTDQWVQDKITQMKYVTDVGVLQRHVSRHNHRNEDEENTLSVDCTRISFEYDLRLVLYQHWSLHDSLCNTSYTAARFKLWSVHGQKRLQEFLADMGLPLKQVKQKFQAMDISLKENLREMIEESANKFGMKDMRVQTFSIHFGFKHKFLASDVVFATMSLMESPEKDGSGTDHFIQALDSLSRSNLDKLYHGLELAKKQLRATQQTIASCLCTNLVISQGPFLYCSLMEGTPDVMLFSRPASLSLLSKHLLKSFVCSTKNRRCKLLPLVMAAPLSMEHGTVTVVGIPPETDSSDRKNFFGRAFEKAAESTSSRMLHNHFDLSVIELKAEDRSKFLDALISLLS [CDC45] | -0.233 | -0.126 | 47.6 | 48.5 |
| MTRGNQRELARQKNMKKQSDSVKGKRRDDGLSAAARKQRDSEIMQQKQKKANEKKEEPK [SERF2] | 0.752 | 0.151 | 57.5 | – |
| METPGASASSLLLPAASRPPRKREAGEAGAATSKQRVLDEEEYIEGLQTVIQRDFFPDVEKLQAQKEYLEAEENGDLERMRQIAIKFGSALGKMSREPPPPYVTPATFETPEVHAGTGVVGNKPRPRGRGLEDGEAGEEEEKEPLPSLDVFLSRYTSEDNASFQEIMEVAKERSRARHAWLYQAEEEFEKRQKDNLELPSAEHQAIESSQASVETWKYKAKNSLMYYPEGVPDEEQLFKKPRQVVHKNTRFLRDPFSQALSRCQLQQAAALNAQHKQGKVGPDGKELIPQESPRVGGFGFVATPSPAPGVNESPMMTWGEVENTPLRVEGSETPYVDRTPGPAFKILEPGRRERLGLKMANEAAAKNRAKKQEALRRVTENLASLTPKGLSPAMSPALQRLVSRTASKYTDRALRASYTPSPARSTHLKTPASGLQTPTSTPAPGSATRTPLTQDPASITDNLLQLPARRKASDFF [DGCR14] | 0.334 | 0.458 | 50 | 52.4 |
| CEP250 | -0.0371 | 0.272 | 51 | 50.8 |
| MSSSSSSPRETYEEDREYESQAKRLKTEEGEIDYSAEEGENRREATPRGGGDGGGGGRSFSQPEAGGSHHKVSVSPVVHVRGLCESVVEADLVEALEKFGTICYVMMMPFKRQALVEFENIDSAKECVTFAADEPVYIAGQQAFFNYSTSKRITRPGNTDDPSGGNKVLLLSIQNPLYPITVDVLYTVCNPVGKVQRIVIFKRNGIQAMVEFESVLCAQKAKAALNGADIYAGCCTLKIEYARPTRLNVIRNDNDSWDYTKPYLGRRDRGKGRQRQAILGEHPSSFRHDGYGSHGPLLPLPSRYRMGSRDTPELVAYPLPQASSSYMHGGNPSGSVVMVSGLHQLKMNCSRVFNLFCLYGNIEKVKFMKTIPGTALVEMGDEYAVERAVTHLNNVKLFGKRLNVCVSKQHSVVPSQIFELEDGTSSYKDFAMSKNNRFTSAGQASKNIIQPPSCVLHYYNVPLCVTEETFTKLCNDHEVLTFIKYKVFDAKPSAKTLSGLLEWECKTDAVEALTALNHYQIRVPNGSNPYTLKLCFSTSSHL [HNRPLL] | -0.0931 | -0.0114 | 47.6 | 49.7 |
| STAT2 | -0.0132 | -0.0626 | 49.1 | 50.9 |
| TAF6 | 0.14 | 0.046 | 49.1 | 49.6 |

Reference: the supplement of paper PMC5998384
